This is an account of results in patent US20250369024A1, “Acyloin Condensation Reactions, Enzymes, and Products Thereof” (Mojia Biotech Pte. Ltd., priority 2023, published 2025).

Common to all, as to assay type: cell-based, E. coli
For test [1], the system named is Acetaldehyde. Briefly: HACS screening, acetaldehyde-C1 condensation (resting cells), lactic acid. The settings on record: 20 mM acetaldehyde and 20 mM formate, 3 hours. From the text:
(§1) To implement the C1 elongation pathway for lactic acid production in vivo, we engineered vectors to independently control expression of various HACS candidates and the acyl-CoA transferase from Clostridium aminobutyricum (CaAbfT), with HACS under control of the IPTG-inducible T7 promoter in pCDFDuet-1 and CaAbfT under control of a cumate-inducible T5 promoter in pETDuet-1. As a host for these vectors, we used an engineered strain of E. coli based on MG1655(DE3) with knockouts for formaldehyde (ΔfrmA) and formate (ΔfdhF ΔfdnG ΔfdoG) oxidation as well as for glycolate utilization (ΔglcD).
(§2) In vivo product synthesis was conducted using M9 minimal media (6.78 g/L Na2HPO4, 3 g/L KH2PO4, 1 g/L NH4Cl, 0.5 g/L NaCl, 2 mM MgSO4, 100 μM CaCl2), and 15 μM thiamine-HCl) unless otherwise stated. Cells were initially grown in 96-deep well plates (USA Scientific, Ocala, FL) containing 0.5 mL of the above media further supplemented with 20 g/L glycerol, 10 g/L tryptone, and 5 g/L yeast extract. […]
(§3) Cells from the above pre-cultures were then centrifuged (4000 rpm, 22° C.), washed with the above minimal media without any carbon source, and resuspended with 1 mL of above minimal media containing indicated amounts of carbon source. […] After incubation at 30° C. for 3 hours, the cells were pelleted by centrifugation and the media was analyzed using HPLC.

Test [2] relates to Isovaleraldehyde. Description: HACS screening, isovaleraldehyde-C1 condensation (resting cells), leucic acid. The following applies: 20 mM isovaleraldehyde and 20 mM formate, 3 hours.
Excerpt: To implement the C1 elongation pathway for leucic acid production in vivo, we engineered vectors to independently control expression of various HACS candidates and the acyl-CoA transferase from Clostridium aminobutyricum (CaAbfT), with HACS under control of the IPTG-inducible T7 promoter in pCDFDuet-1 and CaAbfT under control of a cumate-inducible T5 promoter in pETDuet-1. As a host for these vectors, we used an engineered strain of E. coli based on MG1655(DE3) with knockouts for formaldehyde (ΔfrmA) and formate (ΔfdhF ΔfdnG ΔfdoG) oxidation as well as for glycolate utilization (ΔglcD).
as §2, §3

In test [3] the test system is Glycolaldehyde. Description: HACS screening, glycolaldehyde-C1 condensation (resting cells), glyceric acid. The following applies: 20 mM glycolaldehyde and 20 mM formate, 3 hour.
Excerpt: To implement the C1 elongation pathway for glyceric acid production in vivo, we engineered vectors to independently control expression of various HACS candidates and the acyl-CoA transferase from Clostridium aminobutyricum (CaAbfT), with HACS under control of the IPTG-inducible T7 promoter in pCDFDuet-1 and CaAbfT under control of a cumate-inducible T5 promoter in pETDuet-1. As a host for these vectors, we used an engineered strain of E. coli based on MG1655(DE3) with knockouts for formaldehyde (ΔfrmA) and formate (ΔfdhF ΔfdnG ΔfdoG) oxidation as well as for glycolate utilization (ΔglcD).
as §2
Cells from the above pre-cultures were then centrifuged (4000 rpm, 22° C.), washed with the above minimal media without any carbon source, and resuspended with 1 mL of above minimal media containing indicated amounts of carbon source. […] After incubation at 30° C. for 3 hour, the cells were pelleted by centrifugation and the media was analyzed using HPLC.

Test [4] has as its system Formaldehyde. Briefly: HACS screening, formaldehyde-formyl-CoA condensation in vivo (resting cells), glycolate. The settings on record: 2.5 mM formaldehyde and 20 mM formate, 0.5 hours.
Excerpt: as §1, with “glycolate” for “lactic acid”, “pETDuet-1” for “pCDFDuet-1”, “pCDFDuet-1 (FIG. 14C).” for “pETDuet-1.”, “(ΔglcD), which we expected could compete or interfere with the analysis of our pathway (FIG. 14B).” for “(ΔglcD).”
In vivo product synthesis was conducted using M9 minimal media (6.78 g/L Na2HPO4, 3 g/L KH2PO4, 1 g/L NH4Cl, 0.5 g/L NaCl, 2 mM MgSO4, 100 μM CaCl2), and 15 μM thiamine-HCl) unless otherwise stated. […]
Cells from the above pre-cultures were then centrifuged (4000 rpm, 22° C.), washed with the above minimal media without any carbon source, and resuspended with 1 mL of above minimal media containing indicated amounts of carbon source. […] After incubation at 30° C. for 0.5 hours, the cells were pelleted by centrifugation and the media analyzed (FIG. 14A).

B1: RuHACL: Engineered 2-hydroxyphytanoyl-CoA lyase [Rhodospirillales bacterium URHD0017], SEQ ID NO: 1 (protein)
chain: MSEVDGATLIARSLKQQGIDHLFGVVGFPITAIAAAAQKEGVAYLGMRNEQSAAYAAAAYGYLTGRPGAAVVVTGPGVVHGLSGLANAQQNCWPMILIGGASETYRGGMGAFQEERQVLIASPFCKFAHGIESVARIPFYVEMATRNAIYGRPGATYLDMPDDIIRGTCETDKIAQAERVPEAPRSVAPAENVEAALDLLEKAQRPLVLLGKGMAWSRGEDEVRAFIERTQVPFVRSPMGKGVMPDDHPLSASAARTLALQQADVIFLMGARLNWIFHFGLPPRYAKDVKVIQLDIAPEEIGHNKPTEVALVGDGKAIMAQLNKALVNRQWFHPKDTPWRQALTKKAAENVATIKPQVDDDQGPAGYYRALRDVAAWMPKNAILSAEGANTMDIGLTQLASSNARSVLNAGTYGTMGVGLGQAIAAAVSDPSRPVIHLSGDSAIGFSGMEMETLVRYNLPVKIVVLNNGGIGPGMPEIPENPMFNLKPNALIYGARYDKVMEAFGGKGIFVKEPKDIRKALDEAMAFKGPALVNVVLSQGSTRKAQQFAWHS
modifications: Rhodospirillales bacterium URHD0017 engineered 2-hydroxyphytanoyl-CoA lyase
On to B1, for which the “Product flux, substrate Acetaldehyde, product Lactate” value in test [1] is 78.1 μM/OD/h. Besides, in test [2], the “Product flux, substrate Isovaleraldehyde, product Leucic acid” value came out at 12.5 μM/OD/h. In addition, in test [3], the “Product flux, substrate Glycolaldehyde, product Glycerate” value came out at 7.2 μM/OD/h. Also, the “Product flux, substrate Formaldehyde, product Glycolate” value in test [4] is 44.5 μM/OD/h.
